In patent US20260263521A1 (AIMED BIO, published 2026):
Changes are numbered by the printed parent chain. Several values for one entry are separate records, joined by “and”; a condition that tells them apart may be missing. Identical values can stand only once. Values belong to the binder of their own block, whether it stands above or below them.

What was measured:
Hybrid CD200R1 MH [1] = target: T1, Hybrid CD200R1 MH (mouse;human, UniProt Q9ES57;Q8TD46); assay: ELISA, plate-bound MH hybrid (1 ug/mL), antibody 0.0192-300 nM, O.D 450 nm; panel 'P001 MH domain-4)'
T1 construct: single domain; mouse D1 over human D2; also called MH hybrid domain; P001 MH domain
T1 sequence (hybrid extracellular part, looked up): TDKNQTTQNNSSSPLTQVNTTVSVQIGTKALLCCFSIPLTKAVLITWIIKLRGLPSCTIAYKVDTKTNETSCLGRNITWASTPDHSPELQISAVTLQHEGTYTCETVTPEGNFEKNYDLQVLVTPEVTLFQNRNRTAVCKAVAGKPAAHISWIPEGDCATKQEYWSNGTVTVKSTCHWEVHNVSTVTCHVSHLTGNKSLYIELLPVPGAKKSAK
Procedure: (§1) Recombinant proteins were produced from the extracellular Ig-like V-type domain and Ig-like C2-type domain of human CD200R1, each designed as human-mouse (HM hybrid domain) and mouse-human (MH hybrid domain) recombinant proteins. A 96-well plate was coated at a concentration of 1 μg/mL with each protein at 4° C. for 16 hours and blocked with 3% skim milk. […] After color development with TMB substrate solution (Thermo Scientific, 34029, 1-Step™ Ultra TMB-ELISA Substrate Solution), the color reaction was stopped with a stop solution (Invitrogen, SS04, ELISA Stop Solution), and the absorbance was measured at an O.D. of 450 nm.

[2] = target: T2, human CD200R1 recombinant protein (construct not stated) (human, UniProt Q8TD46 27-266, limits assumed); assay: hybridoma ELISA on human CD200R1
T2 sequence (looked up): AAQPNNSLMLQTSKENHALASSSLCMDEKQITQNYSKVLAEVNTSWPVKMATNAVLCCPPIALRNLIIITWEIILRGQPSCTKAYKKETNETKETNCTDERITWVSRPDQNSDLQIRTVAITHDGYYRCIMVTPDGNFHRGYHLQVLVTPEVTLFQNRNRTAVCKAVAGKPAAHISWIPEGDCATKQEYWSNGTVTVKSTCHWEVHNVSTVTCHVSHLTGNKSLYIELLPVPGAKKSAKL

[3] = target: T3, mouse CD200R1 protein (R&D systems, 2554-CD) (mouse, UniProt Q9ES57 26-238, limits assumed); assay: ELISA, plate-bound mouse CD200R1 (2 ug/mL), IgG 0.0192-300 nM, OD 450 nm; panel 'mouse CD200R1'
T3 construct: Bought; construct not described
T3 sequence (looked up): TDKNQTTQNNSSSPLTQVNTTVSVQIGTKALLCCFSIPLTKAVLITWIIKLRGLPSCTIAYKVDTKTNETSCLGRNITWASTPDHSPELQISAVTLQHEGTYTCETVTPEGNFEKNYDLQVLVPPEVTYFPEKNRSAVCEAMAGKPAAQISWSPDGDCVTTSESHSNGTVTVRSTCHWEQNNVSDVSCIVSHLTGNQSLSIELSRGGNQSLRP
Procedure: (§2) 96-well plates were coated with human CD200R1 (R&D systems, 3414-CD) and mouse CD200R1 protein (R&D systems, 2554-CD) at a concentration of 2 μg/mL at 4° C. for 16 hours and then were blocked with 3% skim milk.
(§3) Color was developed with a TMB substrate solution (Thermo Scientific, 34029, 1-Step™ TMB-ELISA Ultra Substrate Solution). The color reaction was stopped with stop solution (Invitrogen, SS04, ELISA Stop Solution). The absorbance was measured at an optical density of 450 nm.

Hybrid CD200R1 MH [4] = target: T1, Hybrid CD200R1 MH; assay: ELISA, plate-bound MH hybrid (1 ug/mL), antibody 0.0192-300 nM, O.D 450 nm; panel 'P001 MH domain-1)'
Procedure: as §1

[5] = target: T4, human CD200RLa (Sino Biological, 11620-H08H) recombinant protein (human, UniProt Q6Q8B3 24-239); assay: ELISA, plate-bound human CD200RLa (2 ug/mL), antibody 0.0192-300 nM, O.D 450 nm; panel 'recombinant human CD200RLa'
T4 construct: Bought; construct not described
T4 sequence (looked up): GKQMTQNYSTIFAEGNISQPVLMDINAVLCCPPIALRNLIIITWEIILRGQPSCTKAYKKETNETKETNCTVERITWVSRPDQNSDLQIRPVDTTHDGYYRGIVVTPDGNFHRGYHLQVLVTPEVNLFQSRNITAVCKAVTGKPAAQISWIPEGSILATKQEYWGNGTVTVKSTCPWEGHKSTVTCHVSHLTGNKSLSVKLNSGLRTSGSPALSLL
Procedure: (§4) 96-well plates were coated with human CD200RLa (Sino Biological, 11620-H08H) and monkey CD200RLa (Sino Biological, 11576-C02H) recombinant proteins at a concentration of 2 μg/mL at 4° C. for 16 hours, and blocked with 3% skim milk for 1 hour. […] Color was developed with a TMB substrate solution (Thermo Scientific, 34029, 1-Step™ Ultra TMB-ELISA Substrate Solution). The color reaction was stopped with stop solution (Invitrogen, SS04, ELISA Stop Solution).

Hybrid CD200R1 MH [6] = target: T1, Hybrid CD200R1 MH; assay: ELISA, plate-bound MH hybrid (1 ug/mL), antibody 0.0192-300 nM, O.D 450 nm; panel 'P001 MH domain-2)'
Procedure: as §1

[7] = target: T5, human CD200R1 expressed on cells (Jurkat-CD200R1, U937-CD200R1, HH cells) (human, UniProt Q8TD46 25-348); assay: flow cytometry on Jurkat-CD200R1 and HH cells, 500 nM antibody in IgG1 form
T5 construct: whole, on cells; also called HH (CRL-2105); cell surface-expressed CD200R1
T5 sequence (looked up): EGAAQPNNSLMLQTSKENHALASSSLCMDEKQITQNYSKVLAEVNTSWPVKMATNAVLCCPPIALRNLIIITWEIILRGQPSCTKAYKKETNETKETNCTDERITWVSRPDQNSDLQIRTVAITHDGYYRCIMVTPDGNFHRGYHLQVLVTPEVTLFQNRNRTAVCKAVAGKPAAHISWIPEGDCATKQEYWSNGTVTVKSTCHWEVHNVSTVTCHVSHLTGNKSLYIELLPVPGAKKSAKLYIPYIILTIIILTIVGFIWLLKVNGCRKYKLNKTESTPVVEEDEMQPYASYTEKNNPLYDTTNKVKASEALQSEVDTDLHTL
Procedure: The cells were washed by centrifugation at 130 g for 5 minutes. The cells were seeded onto 96-well round-bottom plates (SPL, #34296) at a density of 1×10⁵ cells/well in Flow cytometry staining buffer (Invitrogen, #00-4222-26) or FACS buffer. […] After incubation for 1 hour at 4° C., the cells were treated with Alexa-647 Goat anti-human IgG (H+L) cross-adsorbed secondary antibody (Invitrogen, #A21445) and incubated at 4° C. for an additional 30 minutes. After washing twice with FACS buffer, flow cytometry analysis was performed using a Novocyte Flow cytometer (Agilent).

[8] = target: T5, human CD200R1 expressed on cells …; assay: flow cytometry, HH cells; drawn table, row EC50
[9] = target: T2, human CD200R1 recombinant protein …; assay: ELISA on human CD200R1, O.D 450 nm, 0.0192-300 nM; panel 'P001_CD200R1 human 1'
Procedure: as §2, §3
The secondary engineered antibodies were evaluated by ELISA in the same manner as in Examples described above.

[10] = target: T5, human CD200R1 expressed on cells …; assay: flow cytometry, HH cells; drawn table
[11] = target: T6, monkey CD200RLa (Sino Biological, 11576-C02H) recombinant protein (monkey (cyno), UniProt A0A2K5W6R0 30-246); assay: ELISA, plate-bound monkey CD200RLa (2 ug/mL), antibody 0.0192-300 nM, O.D 450 nm; panel 'recombinant cynomolgus CD200RLa/Fc'
T6 construct: Bought; construct not described; also called cyno CD200RLa
T6 sequence: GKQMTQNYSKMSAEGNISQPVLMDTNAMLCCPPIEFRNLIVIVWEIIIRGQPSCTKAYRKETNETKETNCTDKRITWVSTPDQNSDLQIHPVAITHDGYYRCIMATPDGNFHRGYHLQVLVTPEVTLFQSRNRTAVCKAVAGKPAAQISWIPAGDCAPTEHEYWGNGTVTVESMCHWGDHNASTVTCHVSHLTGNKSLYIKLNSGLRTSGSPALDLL
Procedure: as §4

binding result [3]: no binding (tested: 300 nM)
binding result [5]: no binding (tested: 300 nM)
B5: P001004 (IgG) (antibody, V domains shown)
VH: EVQLLESGGGLVQPGGSLRLSCAASGFTFSDYYMSWVRQAPGKGLEWVSGIYPGDGSIYYADSVKGRFTISRDNSKNTLYLQMNSLRAEDAAVYYCAKGLDLYEPMAFDYWGQGTLVTVSS
VL: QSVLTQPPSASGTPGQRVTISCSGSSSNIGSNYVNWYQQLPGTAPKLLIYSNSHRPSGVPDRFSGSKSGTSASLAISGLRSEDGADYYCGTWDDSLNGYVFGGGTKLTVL
binding result (Hybrid CD200R1 MH [4]): no binding (tested: 300 nM)
MFI normalized to P001017 (chimeric OX108), % [7]: > 50%

binding result [3]: no binding (tested: 300 nM)
binding result [5]: no binding (tested: 300 nM)
binding result [11]: no binding (tested: 300 nM)
B7: P001008 (IgG) (antibody, V domains shown)
VH: EVQLLESGGGLVQPGGSLRLSCAASGFTFSSYDMSWVRQAPGKGLEWVSWISHGGGSIYYADSVKGRFTISRDNSKNTLYLQMNSLRAEDTAVYYCARDAPALMHSLFDYWGQGTLVTVSS
VL: QSVLTQPPSASGTPGQRVTISCSGSSSNIGSNHVNWYQQLPGTAPKLLIYYDSQRPSGVPDRFSGSKSGTSASLAISGLRSEDEADYYCGSWDASLNGYVFGGGTKLTVL
binding result (Hybrid CD200R1 MH [6]): no binding (tested: 300 nM)
MFI normalized to P001017 (chimeric OX108), % [7]: > 50%

Second part, the binder before the results:

B1: 1H10 (hybridoma clone) (antibody, V domains shown)
VH: QVQLQQPGAELVKPGTSVKLSCKASGYNFTSYWINWVKLRPGQGLEWIGDINPGSGSTNYNEKFRSKATLTVGTSSSTAYMQLSSLASEDSALYYCAREDYYGSRFFYWGQGTLVTVSA
VL: DVVMTQTPLSLPVSLGDQASISCRSSQSLVHSNGNTYLHWYLQKPGQSPKLLIYKVSNRFSGVPDRFSGSGSGTDFTLKISRVEAEDLGVYFCSQSTHVTFGAGTKLELK
binding result (Hybrid CD200R1 MH [1]): no binding (tested: 300 nM)
ELISA O.D. [2]: ≥ 1.5 O.D.

B2: P001003 (IgG) (antibody, V domains shown)
VH: EVQLLESGGGLVQPGGSLRLSCAASGFTFSDYAMSWVRQAPGKGLEWVSAISHGGSSKYYADSVKGRFTISRDNSKNTLYLQMNSLRAEDTAVYYCARGPEVMLEFDYWGQGTLVTVSS
VL: QSVLTQPPSASGTPGQRVTISCTGSSSNIGNNAVTWYQQLPGTAPKLLIYSDNHRPSGVPDRFSGSKSGTSASLAISGLRSEDEADYYCAAWDSSLSGYVFGGGTKLTVL
binding result [3]: no binding (tested: 300 nM)
binding result (Hybrid CD200R1 MH [4]): no binding (tested: 300 nM)
binding result [5]: no binding (tested: 300 nM)

B3: P001010 (IgG) (antibody, V domains shown)
VH: EVQLLESGGGLVQPGGSLRLSCAASGFTFSNYAMSWVRQAPGKGLEWVSSISPGGGSIYYADSVKGRFTISRDNSKNTLYLQMNSLRAEDTAVYYCARDPGQMFWPLFDYWGQGTLVTVSS
VL: B7 VL with S23T, H33N, N35S, Y51D, Q54H
binding result (Hybrid CD200R1 MH [6]): no binding (tested: 300 nM)
binding result [3]: no binding (tested: 300 nM)
binding result [5]: no binding (tested: 300 nM)

B4: P001005 (IgG) (antibody, V domains shown)
VH: EVQLLESGGGLVQPGGSLRLSCAASGFTFSGYDMSWVRQAPGKGLEWVSQIYPGNGSKYYADSVKGRFTISRDNSKNALYLQMNSLRAEDTAVYYCAKDLQTWTSRRFDYWGQGTLVTVSS
VL: B7 VL with S31N, H33D, Y51S, D52N, Q54H, E84G, S91T, A94D
binding result [3]: no binding (tested: 300 nM)
binding result (Hybrid CD200R1 MH [4]): no binding (tested: 300 nM)
binding result [5]: no binding (tested: 300 nM)

B6: P001018 (huOX108.1) (antibody, V domains shown)
VH: QVQLVQSGAEVKKPGASVKVSCKASGYTFTSYVMHWVRQAPGQGLEWMGYINPYNDDTNYNEKFKGRVTMTRDTSTSTVYMELSSLRSEDTAVYYCAREDYYGSRWGYWGQGTLVTVSS
VL: DIVLTQSPASLAVSPGQRATITCRASKSVSTSGYSYMHWYQQKPGQPPKLLIYLASNLESGVPARFSGSGSGTDFTLTINPVEANDTANYYCQHSRELLTFGQGTKVEIK
notes: also called humanized antibody P001018
EC50 [8]: 6.64 nM
binding result [5]: no binding (tested: 300 nM)
MFI normalized to P001017 (chimeric OX108), % [7]: > 50%
EC50 (read off the curve) [9]: ~2 nM and ~5 nM
Geo mean (%) at 0.05 nM [10]: 2.1%
Geo mean (%) at 0.19 nM [10]: 6.1%
Geo mean (%) at 0.78 nM [10]: 15.8%
Geo mean (%) at 3.125 nM [10]: 35.2%
Geo mean (%) at 12.5 nM [10]: 65.7%
Geo mean (%) at 50 nM [10]: 79.7%
Geo mean (%) at 200 nM [10]: 96.9%
Geo mean (%) at 800 nM [10]: 100%
